Data taken from patent publication US20240262899A1.

Key:
[1] = target: citrullinated histone H3 (CitH3) peptide (human); assay: sandwich ELISA, Ab coated 1 ug/mL, CitH3 at 50 pg/mL
[2] = target: citrullinated histone H3 (CitH3) peptide (human); assay: sandwich ELISA, Ab coated 1 ug/mL, CitH3 at 1000 pg/mL
[3] = target: citrullinated histone H3 (CitH3) peptide (human); assay: sandwich ELISA, Ab coated 1 ug/mL, CitH3 at 20000 pg/mL
[4] = target: citrullinated histone H3 (CitH3) peptide (human); assay: sandwich ELISA, Ab coated 1 ug/mL, CitH3 at 0 pg/mL (blank)

ELISA signal (raw data) [1]: 2950 | ELISA signal (raw data) [2]: 2910 | ELISA signal (raw data) [3]: 3700 | ELISA signal (raw data) [4]: 2780
B1: Y1128-VH1/VL1 (antibody, V domains shown)
VH: EVQLVQSGAEVKKPGATVKISCKASGFNIKDYYMHWMQQRPGKGLEWIGWIDPENGNTIYDPKFQGRVTITSDTSTDTAYLELSSLRSEDTAVYYCAPFGNYVWFAYWGQGTLVTVSS
VL: DVVMTQSPLSLPVTLGQPASISCRSSQSIVHSNGITYLEWFQQRPGQSPRLLIYKVSNRFSGVPDRFSGSGSGTDFTLKISRVEAEDVGVYYCFQGSHVPFTFGQGTKLEIKR
